The target in data set [1] is T1, GTPase regulator associated with FAK (GRAF), Q9UNA1.
T1 chain: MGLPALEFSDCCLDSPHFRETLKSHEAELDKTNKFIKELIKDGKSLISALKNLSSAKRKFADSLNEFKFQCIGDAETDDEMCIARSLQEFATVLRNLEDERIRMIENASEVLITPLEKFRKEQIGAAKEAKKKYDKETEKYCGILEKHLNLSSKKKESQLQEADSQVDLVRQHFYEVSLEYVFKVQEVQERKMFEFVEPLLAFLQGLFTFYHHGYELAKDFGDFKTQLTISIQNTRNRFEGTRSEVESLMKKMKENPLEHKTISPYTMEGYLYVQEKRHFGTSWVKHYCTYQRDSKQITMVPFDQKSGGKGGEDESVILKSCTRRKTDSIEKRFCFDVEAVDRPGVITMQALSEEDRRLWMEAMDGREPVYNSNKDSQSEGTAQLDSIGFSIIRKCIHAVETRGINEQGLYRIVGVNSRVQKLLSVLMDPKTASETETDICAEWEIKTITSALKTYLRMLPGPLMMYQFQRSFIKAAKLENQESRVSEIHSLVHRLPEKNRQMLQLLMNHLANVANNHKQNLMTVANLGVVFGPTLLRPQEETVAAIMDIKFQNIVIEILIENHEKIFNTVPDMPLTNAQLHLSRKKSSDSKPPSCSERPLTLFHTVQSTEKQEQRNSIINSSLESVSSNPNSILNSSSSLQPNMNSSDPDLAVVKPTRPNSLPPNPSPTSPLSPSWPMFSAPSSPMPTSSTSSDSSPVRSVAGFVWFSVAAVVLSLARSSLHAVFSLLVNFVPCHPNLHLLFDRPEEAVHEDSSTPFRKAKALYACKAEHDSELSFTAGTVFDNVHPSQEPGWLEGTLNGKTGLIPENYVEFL

Data set [2] deals with T2, p190RhoGAP, Q9NRY4.
T2 chain: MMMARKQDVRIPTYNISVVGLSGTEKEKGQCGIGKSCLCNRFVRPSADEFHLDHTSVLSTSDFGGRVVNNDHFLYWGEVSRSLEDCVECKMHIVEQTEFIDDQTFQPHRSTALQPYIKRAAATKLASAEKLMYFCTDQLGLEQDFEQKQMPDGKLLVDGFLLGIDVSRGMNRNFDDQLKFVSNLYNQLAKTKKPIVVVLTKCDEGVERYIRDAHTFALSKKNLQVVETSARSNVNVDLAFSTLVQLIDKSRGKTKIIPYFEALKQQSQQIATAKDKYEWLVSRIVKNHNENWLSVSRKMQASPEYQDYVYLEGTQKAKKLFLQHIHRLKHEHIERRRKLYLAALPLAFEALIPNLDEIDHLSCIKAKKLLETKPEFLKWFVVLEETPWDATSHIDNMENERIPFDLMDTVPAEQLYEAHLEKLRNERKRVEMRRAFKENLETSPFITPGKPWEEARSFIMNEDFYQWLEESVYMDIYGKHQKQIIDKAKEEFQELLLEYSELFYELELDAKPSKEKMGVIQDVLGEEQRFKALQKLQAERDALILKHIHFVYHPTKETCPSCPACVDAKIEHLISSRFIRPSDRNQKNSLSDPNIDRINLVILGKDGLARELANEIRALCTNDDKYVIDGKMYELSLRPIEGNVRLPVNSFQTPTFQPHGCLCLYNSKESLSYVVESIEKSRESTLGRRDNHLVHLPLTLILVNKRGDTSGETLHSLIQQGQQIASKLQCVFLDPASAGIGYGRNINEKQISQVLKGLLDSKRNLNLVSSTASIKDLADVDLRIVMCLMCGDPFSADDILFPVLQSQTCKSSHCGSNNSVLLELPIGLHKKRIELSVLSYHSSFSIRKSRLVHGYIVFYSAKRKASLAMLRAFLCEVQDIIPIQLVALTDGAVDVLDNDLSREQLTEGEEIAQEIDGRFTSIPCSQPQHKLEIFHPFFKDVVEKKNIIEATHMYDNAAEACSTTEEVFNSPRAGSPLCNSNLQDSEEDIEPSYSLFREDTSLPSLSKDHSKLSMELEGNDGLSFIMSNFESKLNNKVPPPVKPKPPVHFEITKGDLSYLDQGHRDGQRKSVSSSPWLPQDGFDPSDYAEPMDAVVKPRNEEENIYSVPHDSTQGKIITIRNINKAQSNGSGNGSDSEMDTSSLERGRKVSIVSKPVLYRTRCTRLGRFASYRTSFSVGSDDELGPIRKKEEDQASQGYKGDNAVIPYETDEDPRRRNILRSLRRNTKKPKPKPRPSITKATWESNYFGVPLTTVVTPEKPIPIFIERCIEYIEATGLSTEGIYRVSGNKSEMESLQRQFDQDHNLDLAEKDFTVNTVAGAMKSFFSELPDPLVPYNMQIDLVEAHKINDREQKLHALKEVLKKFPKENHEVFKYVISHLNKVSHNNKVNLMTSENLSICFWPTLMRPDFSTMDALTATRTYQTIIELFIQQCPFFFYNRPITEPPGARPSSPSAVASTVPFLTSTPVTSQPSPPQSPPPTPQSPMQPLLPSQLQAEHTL

B1: focal adhesion kinase (FAK) (protein)
chain: AAAYLDPNLNHTPNSSTKTHLGTGMERSPGAMERVLKVFHYFESNSEPTTWASIIRHGDATDVRGIIQKIVDSHKVKHVACYGFRLSHLRSEEVHWLHVDMGVSSVREKYELAHPPEEWKYELRIRYLPKGFLNQFTEDKPTLNFFYQQVKSDYMLEIADQVDQEIALKLGCLEIRRSYWEMRGNALEKKSNYEVLEKDVGLKRFFPKSLLDSVKAKTLRKLIQQTFRQFANLNREESILKFFEILSPVYRFDKECFKCALGSSWIISVELAIGPEEGISYLTDKGCNPTHLADFTQVQTIQYSNSEDKDRKGMLQLKIAGAPEPLTVTAPSLTIAENMADLIDGYCRLVNGTSQSFIIRPQKEGERALPSIPKLANSEKQGMRTHAVSVSETDDYAEIIDEEDTYTMPSTRDYEIQRERIELGRCIGEGQFGDVHQGIYMSPENPALAVAIKTCKNCTSDSVREKFLQEALTMRQFDHPHIVKLIGVITENPVWIIMELCTLGELRSFLQVRKYSLDLASLILYAYQLSTALAYLESKRFVHRDIAARNVLVSSNDCVKLGDFGLSRYMEDSTYYKASKGKLPIKWMAPESINFRRFTSASDVWMFGVCMWEILMHGVKPFQGVKNNDVIGRIENGERLPMPPNCPPTLYSLMTKCWAYDPSRRPRFTELKAQLSTILEEEKAQQEERMRMESRRQATVSWDSGGSDEAPPKPSRPGYPSPRSSEGFYPSPQHMVQTNHYQVSGYPGSHGITAMAGSIYPGQASLLDQTDSWNHRPQEIAMWQPNVEDSTVLDLRGIGQVLPTHLMEERLIRQQQEMEEDQRWLEKEERFLKPDVRLSRGSIDREDGSLQGPIGNQHIYQPVGKPDPAAPPKKPPRPGAPGHLGSLASLSSPADSYNEGVKLQPQEISPPPTANLDRSNDKVYENVTGLVKAVIEMSSKIQPAPPEEYVPMVKEVGLALRTLLATVDETIPLLPASTHREIEMAQKLLNSDLGELINKMKLAQQYVMTSLQQEYKKQMLTAAHALAVDAKNLLDVIDQARLKMLGQTRPH
With B1, the RhoA activity result was “TM4SF5 expressed in SNU449 cells inhibited RhoA activity, leading to the elongation of cells” in data set [1] and “TM4SF5 expressed in SNU449 cells inhibited RhoA activity, leading to the elongation of cells” in data set [2].

(Values after US20120282619.)
